Experimental data reported in patent publication US9839671B2, “Peptide and uses therefor” (University of Birmingham, priority 2012, dated 2017).
“Also recorded” adds a separate entry of the source.

Legend:
[1] = system: transmigration of B cell depleted PBL / T cells / NK cells across TNF-α/IFN-γ stimulated endothelial cells; assay: B cell dependence of adiponectin inhibition (B cell depletion, B cell supernatants, Brefeldin A, NK cells); type: cell-based, human; details: for effect of B cell supernatants prepared in the presence of Brefeldin A: inhibitor of B cell secretion; for adiponectin inhibition of migration after removal of B cells from PBL: adiponectin 15 μg/ml, B cell depleted PBL
Description: B cells were isolated and incubated in presence or absence of adiponectin at 15 μg/ml. […] For some experiments, B cells were treated with Brefeldin A, an inhibitor of B cell secretion. […] This is shown in FIG. 8, where the data is shown as mean±SEM and is representative of three independent experiments analysed using one-way ANOVA and Bonferroni's multiple comparison post test. ***p<0.001, ns=non-significant.
Refer to FIG. 14. Endothelial cells were cultured in low serum medium and stimulated with TNF-α/IFN-γ for 24 hours in the absence of adiponectin. PBL transmigration was measured after removal of B cells using bead positive selection and after reconstitution with B cells that were isolated using bead negative selection in presence or absence of adiponectin (15 μg/ml). Supernatants from adiponectin-treated B cells or B cell treated with Brefeldin A to block protein secretion were added to PBL.

[2] = system: PBL or B cell depleted PBL transmigration across IFN-γ/TNF-α treated HUVEC; assay: S1P signalling in PBL transmigration across HUVEC; type: cell-based, human
Description: Refer to FIG. 19. […]. Levels of SPHK1 and SPHK2 mRNA expression determined by real-time PCR of RNA from B cells and HUVEC (part D, n=2). PBL transmigration was measured across IFN-γ/TNF-α treated HUVEC pre-treated with SPHK1 specific inhibitor (5 μM) in presence of […] (10 ng/ml) (part E).

[3] = system: lymphocyte integrin LFA-1 (CD11a/CD18; αLβ2); assay: LFA-1 affinity sites on memory T cells immobilised on ICAM, activated with IP-10; type: cell-based; details: IP-10 10 ng/ml, S1P 10 μM, 30 minutes
Description: Refer to FIG. 20. 96 well plates were coated with 50 μg/ml of recombinant ICAM overnight at 4° C. The plate was blocked using PBS 4% BSA for an hour at room temperature and PBL treated with IP-10 (10 ng/ml) and/or S1P (10 μM) were added for 30 minutes. Excess of unbound PBL was washed and PBL were labelled for the intermediate affinity site of the lymphocyte integrin LFA-1 (CD11a/CD18; αLβ2) using the KIM127 antibody (10 ug/ml) and for the high affinity site using antibody 24 (10 ug/ml) at 4° C. The expression of both affinity site was measured on memory T cells using mean fluorescence intensity (MFI). […] Data is a pool of two independent experiments.

[4] = system: transmigration of peripheral blood lymphocytes (PBL) across TNF-α/IFN-γ stimulated endothelial cells; assay: PBL transendothelial migration, static adhesion (transwell) assay; type: cell-based, human; details: for PBL transmigration: static assay, adiponectin 0.0001-15 μg/ml, peptide 0.001-10 ng/ml, control peptides 10 ng/ml
[5] = system: PBL migration across TNF-α/IFN-γ stimulated endothelial cells under flow; assay: PBL migration, flow based adhesion assay; type: cell-based, human; details: adiponectin 15 μg/ml
Description: We have been interested in the ability of the adipocyte derived cytokine, adiponectin, to regulate the recruitment of human T cells to inflamed endothelium. […] In our in vitro studies we used static transwell assays, as well as flow based adhesion assays, to track the migration of T cells (which were in crude isolates of peripheral blood lymphocytes [PBL]) across TNF-α and IFN-γ stimulated endothelial cells.
Endothelial cells were cultured in low serum medium and stimulated with TNF-α/IFN-γ for 24 hours in the absence of adiponectin. PBL were isolated and treated with adiponectin at 0.0001 to 15 μg/ml for one hour.
Refer to FIG. 13. Endothelial cells were cultured in low serum medium and stimulated with TNF-α/IFN-γ for 24 hours in the absence of adiponectin. PBL were isolated and treated with adiponectin at 0.0001 to 15 μg/ml for one hour. […] In part (D), compound C, an AMP-kinase inhibitor, was added to PBL at 10 μg/ml for 30 minutes prior to addition of adiponectin at 15 μg/ml for 1 hour. AMPK is a signalling adapter that is required for adiponectin-receptor signalling. […] Data is a pool of at least three independent experiments and were analysed using t-test, one-way ANOVA and Dunnett's multiple comparisons post-test. **[…], ***[…].

[6] = system: PBL from T1D patients across TNF-α/IFN-γ stimulated endothelial cells; assay: Transmigration of PBL from type 1 diabetes patients; details: adiponectin 15 μg/ml one hour or exogenous PEPITEM
Description: Endothelial cells were cultured in low serum medium and stimulated with TNF-α/IFN-γ for 24 hours in absence of adiponectin. […] Data was analysed using t-test and one-way ANOVA and Bonferonni's multiple comparisons post-test. ***p≦1.0001.
Endothelial cells were cultured in low serum medium and stimulated with TNF-α/IFN-γ for 24 hours in the absence of adiponectin. […] Data was analysed using t-test **p<0.01.

## C[C@H]1CCC/C=C/[C@@H]2C[C@H](O)C[C@H]2[C@H](O)/C=C/C(=O)O1 [Brefeldin A, reference compound]
[1]
  effect of B cell supernatants prepared in the presence of Brefeldin A: not able to regulate the migration of T cells
[1]; listed as Brefeldin-A
  effect of B cell supernatants prepared in the presence of Brefeldin A: this effect was lost
[1]; listed as Brefeldine A
  effect of B cell supernatants prepared in the presence of Brefeldin A: lost

## CCCCCCCCCCCCC/C=C/[C@@H](O)[C@@H](N)COP(=O)(O)O [S1P, sphingosine-1-phosphate]
[2]; exogenous S1P 0-100 μM (FIG. 19C)
  transmigration of B cell depleted PBL pre-treated with S1P: restores the inhibition of transmigration; also recorded: dose dependently inhibits T cell migration
[3]
  expression of intermediate (KIM127) and high affinity (antibody 24) sites of LFA-1 on memory T cells (MFI): down-regulated

## CCCCCCc1cccc(NC(=O)[C@H](N)CCP(=O)(O)O)c1 [W146]
[2]; W146 10 μM with PEPITEM (FIG. 19B)
  effect on PEPITEM inhibition of lymphocyte transmigration: releases lymphocytes from the inhibitory effects of PEPITEM
[2]; W146 10 μM, adiponectin 15 μg/ml (FIG. 19A)
  effect on adiponectin inhibition of lymphocyte transmigration: releases lymphocytes from the inhibitory effects of Adiponectin

## c1cc(-c2cnn3cc(-c4ccc(OCCN5CCCCC5)cc4)cnc23)ccn1 [compound C, reference compound]
[4]; compound C 10 μg/ml on PBL 30 minutes before adiponectin 15 μg/ml 1 hour
  effect on adiponectin-induced decrease of PBL transmigration: restored to normal, control levels; also recorded: restored to normal control levels; also recorded: ablated
[4]; compound C alone
  PBL migration in the absence of adiponectin: did not have any effects

B1: adiponectin (protein)
chain: ETTTQGPGVLLPLPKGACTGWMAGIPGHPGHNGAPGRDGRDGTPGEKGEKGDPGLIGPKGDIGETGVPGAEGPRGFPGIQGRKGEPGEGAYVYRSAFSVGLETYVTIPNMPIRFTKIFYNQQNHYDGSTGKFHCNIPGLYYFAYHITVYMKDVKVSLFKKDKAMLFTYDQYQENNVDQASGSVLLHLEVGDQVWLQVYGEGERNGLYADNDNDSTFTGFLLYHDTN
notes: adipocyte-derived cytokine, used as positive control
[4]; adiponectin, static adhesion assay, PBL treated one hour, linear regression (FIG. 1B)
  EC50, inhibition of PBL transmigration: 0.94 µg/mL
[4]; adiponectin, static adhesion assay, linear regression (FIG. 13A), read-out: EC50, inhibition of PBL transmigration
  EC50: ~40 nM
[4]; dermal microvascular endothelium (FIG. 13C)
  inhibition of PBL transmigration on DMEC: effective
[4]; endothelial cells from umbilical cord (FIG. 13C)
  inhibition of PBL transmigration on HUVEC: effective
[4]; liver sinusoidal endothelial cells (FIG. 13C)
  inhibition of PBL transmigration on HSEC: effective
[4]; saphenous vein endothelial cells (FIG. 13C)
  inhibition of PBL transmigration on HSAVEC: not
[4]
  PBL transmigration: significantly and dose dependently reduced; also recorded: dose dependently blocked
[4]; listed as Adiponectin
  PBL transmigration: induced a decrease of transmigration
[4]; listed as Aq
  PBL transmigration: significantly reduced lymphocyte migration
[5]
  PBL migration in flow based adhesion assay: equally effective
[1]
  adiponectin inhibition of migration after removal of B cells from PBL: lost
[1]; listed as Adiponectin
  adiponectin inhibition of migration after removal of B cells from PBL: completely inhibited this response
[1]; listed as Aq
  adiponectin inhibition of migration after removal of B cells from PBL: completely inhibited this response
[1]; with adiponectin (FIG. 7B)
  migration of natural killer cells: not affected
[6]
  inhibition of transmigration of PBL from T1D patients: refractory; also recorded: significantly compromised
[6]; listed as Adiponectin
  inhibition of transmigration of PBL from T1D patients: lost
